The results in this text go back to patent publication US20150056133A1 (Boehringer Ingelheim, published 2015).

As usually defined, the IC50 is the point on the concentration scale where inhibition reaches its midpoint. Low readings indicate greater potency, high ones weaker potency.

T1: human CX3CR1 (human, UniProt P49238 1-355)
T1 construct: Presented on BA/F3-hCX3CR1, CHO-hCX3CR1 or HEK 293-hCX3CR1 cells, depending on the assay; also called hCX3CR1
T1 sequence (looked up): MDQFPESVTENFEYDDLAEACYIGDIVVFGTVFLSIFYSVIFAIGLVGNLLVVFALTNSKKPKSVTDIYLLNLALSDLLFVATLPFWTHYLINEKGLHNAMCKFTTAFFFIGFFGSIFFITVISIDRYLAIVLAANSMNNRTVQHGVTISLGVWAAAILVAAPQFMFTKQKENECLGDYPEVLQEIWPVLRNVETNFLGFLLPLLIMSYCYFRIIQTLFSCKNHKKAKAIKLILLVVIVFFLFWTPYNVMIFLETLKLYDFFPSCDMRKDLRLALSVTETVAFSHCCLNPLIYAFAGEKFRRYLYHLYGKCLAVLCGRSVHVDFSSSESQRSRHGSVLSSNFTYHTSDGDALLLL

T2: mouse CX3CR1 (mouse, UniProt Q9Z0D9 1-354)
T2 construct: whole, on cells
T2 sequence (looked up): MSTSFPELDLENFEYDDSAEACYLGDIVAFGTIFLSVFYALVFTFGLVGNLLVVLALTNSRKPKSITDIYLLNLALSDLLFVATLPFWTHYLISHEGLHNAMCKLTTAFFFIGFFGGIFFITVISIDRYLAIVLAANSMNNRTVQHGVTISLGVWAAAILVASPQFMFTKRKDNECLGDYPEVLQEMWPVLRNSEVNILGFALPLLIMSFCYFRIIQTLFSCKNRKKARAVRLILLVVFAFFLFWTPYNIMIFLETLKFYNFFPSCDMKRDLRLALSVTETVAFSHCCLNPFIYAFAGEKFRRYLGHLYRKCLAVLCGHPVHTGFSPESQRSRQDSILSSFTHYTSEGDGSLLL

B1: CX3CR1BII317 (VHH)
chain: EVQLVESGGGLVQAGGSLRLSCVASGRTFSSYAMGWFRQAPGKERAFVAGISGSASRKYYADSVKGRFTVSRDNARNTVYLQMNSLKPEDTAVYYCAASNSYPKVQFDYYGQGTLVTVSSGGGGSGGGGSGGGGSGGGGSGGGGSGGGGSGGGGSEVQLVESGGGLVQAGGSLRLSCVASGRTFSSYAMGWFRQAPGKERAFVAGISGSASRKYYADSVKGRFTVSRDNARNTVYLQMNSLKPEDTAVYYCAASNSYPKVQFDYYGQGTLVTVSSAAAEQKLISEEDLNGAAHHHHHH
notes: Bivalent VHH (single polypeptide chain)
B2: CX3CR1BII66B02 (VHH)
VHH: EVQLVESGGGSVQAGESLRLSCAASGSIFSSNAMAWYRQAPGKRRDLVAAINSVGVTKYADSVKGRFTISRDNAKNTVYLQMNSLKPEDTAVYYCTSDPRRGWDTRYWGQGTQVTVSS
notes: Expressed in E. coli TG1 as c-myc, His6-tagged protein
B3: CX3CR1BII316 (VHH)
VHH: EVQLVESGGGSVQAGESLRLSCAASGSIFSSNAMAWYRQAPPGKQRDLVALINSVGITKYADSVKGRFTISSDNAKNTVYLEMNSLKPEDTAVYYCTSDGRRGWDTRYWGQGTQVTVSS
notes: as for B2
B4: CX3CR1BII18E06 (VHH)
VHH: KVQLVESGGGLVQPGGSLRLSCATSGTIFSNNAMGWYRQAPGKKRDLVASISSSGSTNYADSVKGRFTVSRDNDKNTGYLQMNSLKPEDTGVYYCTLDARRGWNTAYWGQGAQVTVSS
notes: as for B2
B5: CX3CR1BII318 (VHH)
chain: EVQLVESGGGSVQAGESLRLSCAASGSIFSSNAMAWYRQAPGKRRDLVAAINSVGVTKYADSVKGRFTISRDNAKNTVYLQMNSLKPEDTAVYYCTSDPRRGWDTRYWGQGTQVTVSSGGGGSGGGGSGGGGSGGGGSGGGGSGGGGSGGGGSEVQLVESGGGSVQAGESLRLSCAASGSIFSSNAMAWYRQAPGKRRDLVAAINSVGVTKYADSVKGRFTISRDNAKNTVYLQMNSLKPEDTAVYYCTSDPRRGWDTRYWGQGTQVTVSSAAAEQKLISEEDLNGAAHHHHHH
notes: as for B1
B6: CX3CR1BII315 (VHH)
VHH: EVQLVESGGGLVQAGGSLRLSCVASGRTFSSYAMGWFRQAPGKERAFVAGISGSASRKYYADSVKGRFTVSRDNARNTVYLQMNSLKPEDTAVYYCAASNSYPKVQFDYYGQGTQVTVSS
notes: as for B2

T4 sequence (P51681 whole entry): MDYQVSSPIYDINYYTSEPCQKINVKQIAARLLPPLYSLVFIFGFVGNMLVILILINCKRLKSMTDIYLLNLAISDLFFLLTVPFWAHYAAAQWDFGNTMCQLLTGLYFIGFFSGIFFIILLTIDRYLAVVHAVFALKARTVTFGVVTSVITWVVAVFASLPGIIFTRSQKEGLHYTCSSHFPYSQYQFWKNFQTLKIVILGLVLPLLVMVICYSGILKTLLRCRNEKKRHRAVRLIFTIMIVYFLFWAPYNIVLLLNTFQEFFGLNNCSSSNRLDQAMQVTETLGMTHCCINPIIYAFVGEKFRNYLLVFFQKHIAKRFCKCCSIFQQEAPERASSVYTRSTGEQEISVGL

The target of one experiment is T1, human CX3CR1. Put plainly: competition FACS against labeled fractalkine, CHO-hCX3CR1 cells. Here is the method:
Periplasmic extracts were screened in a human CX3CR1/human fractalkine FACS competition assay to assess the ability of the expressed VHHs to block the binding of the unique CX3CR1 ligand to the receptor. Human CX3CR1 was presented on CHO cells. As a detection reagent fractalkine (R&D Systems, Minneapolis, Minn., USA) labeled with Alexa Fluor 647 (A647-Fractalkine) at a degree of labeling of 1 was used. In brief, 50 μl of periplasmic extract was added to 6 nM labeled fractalkine (50 μl) and 2E5 CHO-hCX3CR1 cells. After one hour incubation at 4° C., cells were washed three times before analysis on a FACS Array (Becton Dickinson). First a gate was set on the intact cells as determined from the scatter profile. Next, dead cells were gated out by their fluorescence profile from the PI stain (Sigma, St Louis, US). The fluorescence profile from the Alexa Fluor 647 label was determined for each sample and used for the calculation of blocking capacity. As controls, conditions were taken along where there was no VHH present in the periplasmic extract or a known irrelevant VHH and samples were included with excess cold fractalkine. For each sample the percentage block was determined using the control samples to determine the assay window. […]
B1 registered an IC50 of 3.4 nM.

The target in the next experiment is T3, human CCR2 (human, UniProt P41597 1-374).
T3 construct: whole, on cells
T3 sequence (P41597 whole entry): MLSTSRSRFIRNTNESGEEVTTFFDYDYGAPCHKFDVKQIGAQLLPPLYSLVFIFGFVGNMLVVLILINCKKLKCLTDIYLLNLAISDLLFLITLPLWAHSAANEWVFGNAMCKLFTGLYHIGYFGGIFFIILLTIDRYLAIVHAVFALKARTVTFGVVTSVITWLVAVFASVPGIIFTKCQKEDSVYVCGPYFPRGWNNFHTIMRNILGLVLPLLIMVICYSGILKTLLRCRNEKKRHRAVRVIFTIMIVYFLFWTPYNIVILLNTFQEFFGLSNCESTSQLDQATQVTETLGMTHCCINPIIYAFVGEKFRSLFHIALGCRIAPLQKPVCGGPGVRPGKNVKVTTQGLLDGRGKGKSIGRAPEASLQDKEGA
Put plainly: FACS binding on CHO cells expressing human CCR2, anti-cmyc detection. Here is the method: (§1) Specificity for the hCX3CR1 receptor was evaluated by performing a FACS binding experiment on CHO-K1 parental cells or CHO cells expressing human CCR2, human CCR5 or mouse CX3CR1. The VHHs were incubated with the respective cell lines for 30 minutes at 4° C. followed by three wash steps and subsequently incubated with the detection reagents. As detection, a mouse anti-cmyc antibody (Serotec, MCA2200) followed by a goat anti-mouse antibody coupled to PE (Jackson 115-116-071) was used, each incubation was for 30 minutes at 4° C. and was followed by three wash steps. For each cell line a quality control with receptor-specific antibody was included. In addition, the highest concentration of each VHH was also incubated with CHO cells expressing hCX3CR1 as a positive control. No binding to mouse CX3CR1, human CCR2 or human CCR5 could be observed.
(A flow cytometer gives signals particle by particle.)
Turning to B2, the binding result is listed as “no binding”.

As for B3, the binding result is “no binding”.

Take B4: the binding result is reported as “no binding”.

As for B1, the binding result is on record as “no binding”.

In the case of B5, the binding result is “no binding”.

For B6, the binding result is “no binding”.

Another experiment concerns the target T4, human CCR5 (human, UniProt P51681 1-352).
T4 construct: whole, on cells
Nature of the experiment: FACS binding on CHO cells expressing human CCR5, anti-cmyc detection. Here is the method:
as §1
With B2, the binding result was “no binding”.

On to B3, for which the binding result is “no binding”.

As for B4, the binding result is listed as “no binding”.

For B1, the binding result was “no binding”.

B5: the binding result is given as “no binding”.

With B6, the binding result is “no binding”.

In another experiment the target is T1, human CX3CR1. Put plainly: competition FACS against labeled fractalkine, BA/F3-hCX3CR1 cells.
Regarding B4, the IC50 stood at 2.8 nM.

Turning to B6, the IC50 turned out to be 8.1 nM.

A further experiment has as its target T2, mouse CX3CR1. Put plainly: FACS binding on CHO cells expressing mouse CX3CR1, anti-cmyc detection. Here is the method:
as §1
Consider B2, for which the binding result was “no binding”.

Consider B3, for which the binding result is reported as “no binding”.

In the case of B4, the binding result is “no binding”.

For B1, the binding result is reported as “no binding”.

Consider B5, for which the binding result is “no binding”.

As for B6, the binding result is listed as “no binding”.

In another experiment the target is T1, human CX3CR1. Put plainly: competition FACS against labeled fractalkine, HEK 293-hCX3CR1 cells.
On to B2, for which the “% Block” value is 102% and the IC50 came to 2.5 nM.

Take B3: the “% Block” value is 94% and the IC50 was determined as 5.3 nM.

As to B5, the “% Block” value was 102% and the IC50 was found to be 0.3 nM.
